Reference: PMC3865534 (Leukemia, 2013)

Experiments:
[1] = system: BM cells (CFU-C) migrating towards CXCL12; experiment: Transwell migration of BM CFU-C towards CXCL12; format: cell-based, mouse; conditions: CXCL12 100 ng/ml, 4 h
Procedure: (§1) Input cells and cells from the lower chamber were plated into a colony assay; colony-forming unit culture (CFU-C) migration is expressed as the percent of migrated CFU-C of total CFU-C contained in the inoculum (input).
(§2) (a, b) Analysis of the binding properties of POL5551 to CXCR4. […] CXCR4 Ab without agonist/antagonists (untreated) or isotypic control Ab (isotype) were used as positive and negative controls.

[2] = mouse, in vivo
[3] = system: hematopoietic progenitor cells (CFU-C) in diabetic C57BL/6 mice; experiment: CFU-C mobilization in Streptozotocin-induced diabetic mice; format: in vivo
Procedure: (§3) POL5551 (Polyphor Ltd, Allschwil, Switzerland) was suspended in saline and either injected as bolus intraperitoneally (i.p.) or intravenously (i.v.) (0.5–100 μg/g body weight) or filled into continuous-release osmotic minipumps (model 2001, Alzet, Palo Alto, CA, USA), which were implanted under general anesthesia into a dorsal subcutaneous pouch. Mono-biotinylated POL5551 (Polyphor Ltd) was suspended in PBS (Life Technologies GmbH, Darmstadt, Germany) and injected i.p. rhG-CSF (Granocyte, Chugai, Frankfurt, Germany) was suspended in dH20 and diluted in saline to a final concentration of 0.5 μg/μl for i.p. injection. Mice received G-CSF injections every 12 h at a dose of 100 μg/kg for a total of nine doses i.p., referred to as ‘standard regimen' throughout the manuscript. Subsequent blood withdrawal and/or administration of POL5551 were performed directly after the last G-CSF injection on day 5.
(§4) For enumeration of CFU-C, aliquots of cells were incubated in duplicate in commercially available growth-factor-supplemented methyl cellulose medium for mouse CFU-C (Stem Cell Technologies, Vancouver, BC, USA or Cell Systems) as described.[23], [32] CFU-C (BFU-E, CFU-GM and CFU-GEMM) were enumerated after 6–8 days.

[4] = system: BM cells stimulated with CXCL12; experiment: F-actin polymerization assay after CXCL12 stimulation; format: cell-based, mouse; conditions: pretreatment with 1 μM; CXCL12 100 ng/ml, 37 °C, n=3
Description: F-actin was then stained with AlexaFluor568-conjugated phalloidin (Molecular Probes, Eugene, OR, USA) followed by flow cytometric analysis of the relative staining intensity.
as §2

[5] = system: hematopoietic progenitor cells (CFU-C); experiment: Co-mobilization with G-CSF; format: in vivo, mouse; conditions: Plerixafor 5 or 10 mg/kg i.p. at end of standard regimen of G-CSF, n=6–8
Procedure: as §3, §4
(§5) Circulating CFU-Cs were enumerated at the indicated time points (mean±s.e.m., n=6–8 mice). […]

[6] = system: hematopoietic progenitor cells (CFU-C) in C57BL/6 mice; experiment: CFU-C mobilization in C57BL/6 mice; format: in vivo
Procedure: as §3, §4

human CXCR4 = experiment: Receptor binding: competition with CXCR4 antibody clones 12G5/1D9 on Ao.o1_hCXCR4 cells; conditions: 1 μM, concurrent incubation with antibody, 4 °C, 30 min, PBS/BSA 0.5%, flow cytometry, n=3
Description: as §2
CXCR4 Ab without agonist/antagonists (untreated) or isotypic control Ab (isotype) were used as positive and negative controls.

[7] = system: hematopoietic progenitor cells (CFU-C) in C57BL/6 mice; conditions: Plerixafor in mice; cited from earlier work
Procedure: In this study, in vitro and in vivo properties of the novel CXCR4 antagonist POL5551 as a mobilizing agent were evaluated.

[8] = system: hematopoietic progenitor cells (CFU-C); experiment: Co-mobilization with Cyclophosphamide (CY); format: in vivo, mouse; conditions: 5 mg/kg i.p. on day 8 after CY 200 mg/kg i.p.
Procedure: as §3, §4, §5

[9] = system: macrophages and osteoblasts in BM and endosteum; conditions: previously confirmed; cited from earlier work
Description: Using a similar immunohistochemistry approach, we examined whether the distribution of mature osteoblasts and macrophages within the BM and endosteal environment was disturbed by treatment with POL5551. […] In contrast to G-CSF (Figures 6c and d), treatmen ...

[10] = system: PB-mobilized CFU-C migrating towards CXCL12; experiment: Ex vivo migration of mobilized CFU-C towards CXCL12; format: cell-based, mouse; conditions: G-CSF standard regimen; n=5–8
Procedure: as §1

[11] = system: long-term repopulating HSCs; experiment: Limiting dilution competitive repopulating unit (CRU) assay; format: in vivo, mouse; conditions: POL5551 30 mg/kg i.p.; G-CSF standard regimen; 16 weeks, n=5–10
Procedure: To determine the frequency of long-term repopulating HSCs in POL5551 versus G-CSF-mobilized blood, a limiting dilution CRU assay was performed.[34] Lethally irradiated CD45.2 hosts, 5–10 per group, received i.v. grafts consisting of limiting volumes (2.5, 5.0 and 10 μl) of CD45.1 POL5551 or G-CSF-mobilized blood cells together with 2.5 × 10^5 CD45.2 BM competitor cells. After 16 weeks, multilineage contribution of the CD45.1 graft-derived leukocytes was measured using flow cytometry. Animals with evidence of mobilized blood-derived (that is, CD45.1+) Gr1+, CD11b+, B220+ and CD3+ cells (⩾0.5% for each lineage) were considered positive for donor cell engraftment. CRU (LTRC) frequency was calculated using the LCALC software (Stem Cell Technologies).
Figure 5 Mobilization of CRU by POL5551. CRU frequency in POL5551 (30 mg/kg)-mobilized blood was determined using a CRU assay and compared with the CRU frequency in G-CSF (standard regimen)-mobilized blood. […] CRU engraftment, defined as multilineage engraftment of ⩾0.5% per lineage was quantified 16 weeks after transplantation. […] The mean CRU (LTRC) frequency (b) was calculated using Poisson's statistic (LCALC software, Stem Cell Technologies) (mean±upper/lower frequency).

[12] = system: hematopoietic progenitor cells (CFU-C) in DBA/2 mice; experiment: CFU-C mobilization, DBA/2 relative to C57BL/6 mice; format: in vivo; conditions: G-CSF standard regimen
Procedure: as §3, §4

white blood cells = experiment: Mobilization of mature leukocyte subsets; format: in vivo, C57BL/6 mice; conditions: POL5551 4 h i.p., G-CSF standard regimen, Plerixafor 5 mg/kg i.p. 1 h
Procedure: (§6) Cell labeling was performed according to standard protocols using established marker panels for identification of different subsets in mouse hematopoietic tissues. Antibodies used in this study are detailed in Supplementary Methods. Subsequent acquisition and analysis were performed on a BD FACSCanto II cytometer with the FACSDiva software (BD Biosciences). Some data were further analyzed using the FlowJo software (Tree Star, Inc., Ashland, OR, USA). Cell isolation by flow sorting was performed on a BD FACS Aria II (BD Biosciences).
Figure S3: Mobilization of mature cell subsets by POL5551. A: Time-response of POL5551 mediated mobilization of WBCs. C57BL/6 mice received POL5551 (5 mg/kg) i.p. and blood was drawn at the indicated time points for blood count analysis (mean±SEM from 5 mice). B: Relative distribution of leukocytes in mobilized blood specimen. Blood was drawn before (baseline) and 4 hours after POL5551 injection i.p. (mean±SEM, n=5). […] C: Mobilization of T-, B-cells, monocytes and granulocytes. Blood composition was analyzed 4 hours after POL5551 injection (30 mg/kg, i.p. mean±SEM, n=6). […] D: Assessment of mobilized T-cell subsets.

c-kit+ cells = experiment: Immunophenotype of c-kit+ cells; format: in vivo, C57BL/6 mice; conditions: G-CSF standard regimen, after 9th dose, mean +/- SEM, n=5
Procedure: as §6
C57BL/6 mice were mobilized with a bolus injection of POL5551 (5 or 30 mg/kg, i.p., n=5) or standard regimen of G-CSF (n=5). Saline treated animals (n=5) served as steady-state BM and PB donors. […] Percentage of positive cells was evaluated in comparison to isotype control. Mean fluorescence intensity was analyzed among c-kit+ cells.

Question: With “CXCL12: the natural ligand, the chemokine CXCL12” as the molecule, how does the “CXCL12-induced transwell migration of ssBM CFU-C” value ([1]; percent of input CFU-C, no inhibitor, n=13) read?
Answer: Its value is ~6%.

Question: What does the source list for `c1cc(CN2CCCNCCNCCCNCC2)ccc1CN1CCCNCCNCCCNCC1` [Plerixafor]?
Answer: Inhibition of CXCL12-induced transwell migration of ssBM CFU-C ([1]; pre-incubation with 1 μM, n=3): completely blocked; Toxicity limiting dose [2]: could not be tested at doses >10 mg/kg because of its toxicity; Rescue of diabetes-induced hyporesponsiveness to G-CSF ([3]; Plerixafor 10 mg/kg i.p. after the ninth G-CSF dose, 1 h, n=3): could rescue diabetes-induced hyporesponsiveness to G-CSF; CFU-C mobilization in diabetic vs healthy mice ([3]; Plerixafor 10 mg/kg i.p., 1 h, n=3): markedly decreased (to approximately one-fourth); Inhibition of CXCL12-induced F-actin polymerization [4]: did not show an inhibitory effect; Mobilization in combination with G-CSF [5]: noticeably enhanced; Circulating CFU-C ([6]; Plerixafor 5 mg/kg i.p., n=4): 1300 CFU-C/ml; Binding to N-terminus / interference with 1D9 binding (human CXCR4): without affecting the binding of 1D9; Binding to extracellular loops / interference with 12G5 binding (human CXCR4): interfered with 12G5 binding; Dose at which mobilization peaks [7]: 5 mg/kg; CFU-C mobilized in combination with CY [8]: > 40 000 CFU-C per ml PB; Synergism with CY compared with CY plus G-CSF [8]: more pronounced than the combination of CY plus G-CSF

Question: With `O=P1(N(CCCl)CCCl)NCCCO1` (stereo not drawn) [CY, Cyclophosphamide] as the molecule, how does the “Mobilization through collapse of HSC niche cellular components” value [9] read?
Answer: The value was “initiates collapse of HSC niche cellular components”.

B1: G-CSF: rhG-CSF (Granocyte, Chugai, Frankfurt, Germany) (protein, UniProt P09919 31-207, looked up)
Granulocyte …: TPLGPASSLPQSFLLKCLEQVRKIQGDGAALQEKLVSECATYKLCHPEELVLLGHSLGIPWAPLSSCPSQALQLAGCLSQLHSGLFLYQGLLQALEGISPELGPTLDTLQLDVADFATTIWQQMEELGMAPALQPTQGAMPAFASAFQRRAGGVLVASHLQSFLEVSYRVLRHLAQP
Question: Which “Responsiveness of mobilized CFU-C to CXCL12” value [10] does the source give for B1 here?
Answer: Its value is “to a similar degree as was also observed for G-CSF-mobilized blood”.

Question: And the “CRU frequency in mobilized blood” value [11]?
Answer: Its value is 34 CRU/ml.

Question: What about the “Mobilization through collapse of HSC niche cellular components” value [9] of the same molecule?
Answer: Its value is “initiates collapse of HSC niche cellular components”.

Question: And the “CFU-C mobilization in diabetic vs healthy mice” value ([3]; G-CSF standard regimen, n=6)?
Answer: The value was “markedly decreased (to approximately one-fourth)”.

Question: And the “Mobilization in DBA/2 relative to C57BL/6 mice” value [12]?
Answer: Its value is “at least six times more CFU-C in DBA/2 than in C57BL/6 mice”.

Question: What about the “Frequency of neutrophils in mobilized vs non mobilized blood” value (white blood cells) of the same molecule?
Answer: Its value is “most prominently in G-CSF-mobilized”.

Question: What about the “Circulating CFU-C” value ([6]; G-CSF standard regimen (100 μg/kg every 12 h, nine doses i.p.), n=58) of the same molecule?
Answer: Its value is 3800 CFU-C/ml.

Question: What about the “CD26, RMFI of c-kit+ cells” value (c-kit+ cells) of the same molecule?
Answer: Its value is 291 +/- 56.

Question: And the “CD26, positive c-kit+ cells” value (c-kit+ cells)?
Answer: The value was 1,6 +/- 0,3%.

Question: And the “CD29, RMFI of c-kit+ cells” value (c-kit+ cells)?
Answer: The value was 1587 +/- 267.

Question: What about the “CD29, positive c-kit+ cells” value (c-kit+ cells) of the same molecule?
Answer: The value was 38,0 +/- 6,2%.

Question: And the “CD49e, RMFI of c-kit+ cells” value (c-kit+ cells)?
Answer: Its value is 772 +/- 39.

Question: And the “CD49e, positive c-kit+ cells” value (c-kit+ cells)?
Answer: The value was 55,2 +/- 3,5%.

Question: And the “CD49f, RMFI of c-kit+ cells” value (c-kit+ cells)?
Answer: The value was 642 +/- 104.

Question: And the “CD49f, positive c-kit+ cells” value (c-kit+ cells)?
Answer: Its value is 24,2 +/- 4,7%.

Question: And the “CD49d, RMFI of c-kit+ cells” value (c-kit+ cells)?
Answer: The value was 1179 +/- 58.

Question: And the “CD49d, positive c-kit+ cells” value (c-kit+ cells)?
Answer: Its value is 72,6 +/- 3,6%.

Question: And the “VCAM1, RMFI of c-kit+ cells” value (c-kit+ cells)?
Answer: The value was 384 +/- 73.

Question: And the “VCAM1, positive c-kit+ cells” value (c-kit+ cells)?
Answer: Its value is 0,7 +/- 0,1%.
